# From patent US20250051463A1 (AstraZeneca / MedImmune, published 2025)
# T1: human IL3Rα (CD123), sample in solution for biolayer interferometry (human, UniProt P26951 19-305, limits assumed)
# T1 construct: Soluble analyte in the Octet assay; also called hIL3-Rα; hIL3Rα
# T1 sequence (looked up): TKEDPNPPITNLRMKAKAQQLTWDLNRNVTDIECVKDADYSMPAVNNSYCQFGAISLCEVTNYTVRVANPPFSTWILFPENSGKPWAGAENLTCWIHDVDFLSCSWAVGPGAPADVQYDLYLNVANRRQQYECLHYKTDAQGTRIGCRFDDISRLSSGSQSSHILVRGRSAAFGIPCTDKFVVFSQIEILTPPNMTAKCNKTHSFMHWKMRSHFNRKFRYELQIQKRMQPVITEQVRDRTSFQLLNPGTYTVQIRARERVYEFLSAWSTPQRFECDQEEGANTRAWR
# Biological target: T2, human CD123 (IL3Rα) on cells (human, UniProt P26951 19-378)
# T2 construct: whole, on cells; also called human IL3Rα expressed on 293 cells; AD293hIL3Rα
# Assay: flow cytometry on OCI-AML5 cells, geometric mean
row,Binder,binding result
1,"HT38-GL-Q (antibody, V domains shown, member of m17) VH: EVQLLESGGGLVQPGGSLRLSCAASGFTFSSYAMSWVRQAPGKGLEWVSAISGGGDSTYYTDSVKGRFTISRDNSKNTLYLQMNSLRAEDTAVYYCAKDRGFYYGMDVWGQGTTVTVSS VL: not shown",binds
2,"HT38-GL (antibody, V domains shown, member of m17) VH: EVQLLESGGGLVQPGGSLRLSCAASGFTFSSYAMSWVRQAPGKGLEWVSAISGGGDSTYYTDSVKGRFTISRDNSKNTLYLQMNSLRAEDTAVYYCAKDRGFYYGMDVWGQGTTVTVSS VL: not shown",binds
3,"HT37-GL-L (antibody, V domains shown, member of m17) VH: EVQLLESGGGLVQPGGSLRLSCAASGFTFSIYAMTWVRQAPGKGLEWVSAISAGGDNTYNADSVKGRFTISRDNSKITLYLQMNSLRAEDTAVYYCAKDRGYYYGMDVWGQGTTVTVSS VL: not shown",binds

# Biological target: T2, human CD123 (IL3Rα) on cells
# Assay: flow cytometry on Mv411 cells, geometric mean
row,Binder,binding result
1,"HT37-GL (antibody, V domains shown, member of m17) VH: EVQLLESGGGLVQPGGSLRLSCAASGFTFSIYAMTWVRQAPGKGLEWVSAISAGGDNTYNADSVKGRFTISRDNSKNTLYLQMNSLRAEDTAVYYCAKDRGYYYGMDVWGQGTTVTVSS VL: not shown",binds

# Biological target: T2, human CD123 (IL3Rα) on cells
# Assay: flow cytometry on THP-1 CD123(+dox) cells, Geo MFI
# Method: (§1) THP-1 cells were transfected with an IL3Rα expression construct under the control of a doxycycline inducible promoter. THP-1 cells were maintained in DMEM containing 10% heat-inactivated fetal bovine serum (FBS) and were cultured in a humidified atmosphere of 5% CO₂ and at a temperature of 37° C. […] (Dox) inducible cells were stimulated with 1 μg/ml dox overnight before use. […] On the day of plating, cells were spun down at 1500 rpm for 3 minutes, counted, and resuspended to a final concentration of 1×10⁶ cells/ml. Two hundred μl of cells were plated in wells of 96 well microtiter plates. The plates were spun down at 1500 rpm for 3 minutes and flicked to remove media. One hundred μl of FACS buffer (PBS+2% FBS) was added to each well. […] The antibody concentration started at 12 μg/ml followed by six 1:3 dilutions (no antibody control was also run). The plates were incubated at 4° C. for 30 minutes. Following incubation, the plates were washed 3 times by spinning down at 1500 rpm for 3 minutes, flicked and 100 μl of FACs buffer was added. Alexa 647 secondary antibody (goat anti-human IgG (H+L)) was added at 1:1000 dilution in 100 μl followed by 30 minute 4° C. incubation. The plates were washed as above. […] Cells were analyzed on a BD Bioscience LSRII by collecting 10,000 cells. Flow data was analyzed in FlowJo software.
row,Binder,EC50 (read off the curve)
1,"HT12-GL-SG3932 (antibody, human IgG1, kappa, V domains shown, SG3932 drug-linker on Cysteine 214 (EU numbering); SG3932 drug-linker (maleimide, succinimidyl thioether) on reduced cysteines; Cysteine 220, Cysteine 226 and Cysteine 229 (EU numbering) named as conjugation sites; DAR 8, also called HT12-GL ADC; CD123 ADC) VH: EVQLLESGGGLVQPGGSLRLSCAASGFTFNIYAMTWVRQAPGKGLEWVSGISAGGDSTYYADSVKGRFTISRDNSKNTLYLQMNSLRAEDTAVYYCAKDRGYYYGMDVWGQGTTVTVSS VL: not shown",~0.3 µg/mL

# Biological target: T2, human CD123 (IL3Rα) on cells
# Assay: flow cytometry on THP-1 CD123 (no dox) cells, Geo MFI
# Method: as §1
row,Binder,EC50 (read off the curve)
1,"HT12-GL-SG3932 (antibody, human IgG1, kappa, V domains shown, SG3932 drug-linker on Cysteine 214 (EU numbering); SG3932 drug-linker (maleimide, succinimidyl thioether) on reduced cysteines; Cysteine 220, Cysteine 226 and Cysteine 229 (EU numbering) named as conjugation sites; DAR 8, also called HT12-GL ADC; CD123 ADC) VH: EVQLLESGGGLVQPGGSLRLSCAASGFTFNIYAMTWVRQAPGKGLEWVSGISAGGDSTYYADSVKGRFTISRDNSKNTLYLQMNSLRAEDTAVYYCAKDRGYYYGMDVWGQGTTVTVSS VL: not shown",~0.1 µg/mL

# Biological target: T1, human IL3Rα (CD123), sample in solution …
# Assay: kinetic binding curves, antibody on the sensor, human CD123 in solution
# Method: Biolayer interferometry binding experiments were performed using an Octet RED384 instrument, with all measurements made at 30° C. AHC biosensor probes were soaked in kinetics buffer (PBS pH 7.2+0.02% Tween-20, 0.1% BSA, 0.05% sodium azide) for 10 minutes, followed by baseline signal measurement in kinetics buffer for 60 seconds. […] For binding to hIL3-Rα, the antibody-loaded biosensor tips were dipped in binding buffer for 60 sec (baseline), followed by immersion in a solution containing dilutions of hIL3-Rα (10-0.16 μg/mL) for 300 sec (association), and subsequent immersion in kinetics buffer for 400 sec (dissociation). For binding to hIL5-Rα and GM-CSFRa, all steps were the same except the concentration of antigen was increased (50-1.56 μg/mL) and the dissociation step was decreased to 300 sec. The signal from a buffer only reference sample was subtracted, and all curves were fit with a 1:1 binding model to determine KD values.
row,Binder,binding result
1,"J13 antibody (antibody, V domains shown, also called Antibody J13) VH: EVQLVESGGGLVQPGGSLRLSCVVSGFTFSSYAMSWVRQAPGKGLEWVSAISGSGDSTYYADSVKGRFTFSRDNSKNTLYLQMNSLRAEDTAVYYCTKDRGFYYGMDVWGQGTMVTVSS VL: not shown",binds

# Biological target: T2, human CD123 (IL3Rα) on cells
# Assay: flow cytometry on Ad293 cells expressing human IL3Ra, geometric mean
row,Binder,binding result
1,"HT31-GL (antibody, V domains shown, member of m17) VH: EVQLLESGGGLVQPGGSLRLSCAASGFTFSIYAMSWVRQAPGKGLEWVSAISGGGDSTYYADSVKGRFTISRDNSKNTLYLQMNSLRAEDTAVYYCAKDRGFYYGMDVWGQGTTVTVSS VL: not shown",binds
2,"HT6-GL (antibody, V domains shown, member of m17) VH: EVQLLESGGGLVQPGGSLRLSCAASGFTFNSYAMSWVRQAPGKGLEWVSAVSGGGDTTYYAESVKGRFTISRDNSKNTLYLQMNSLRAEDTAVYYCAKDRGYYYGMAVWGQGTTVTVSS VL: DIVMTQSPLSLPVTPGEPASISCRSSQSLLRSNGYHYLDWYLQKPGQSPQLLIYLGSNRAPGVPDRFSGSGSGTDFTLKISRVEAEDVGVYYCMQALQTPYTFGQGTKLEIK",binds
3,"HT7-GL (antibody, V domains shown, member of m17) VH: EVQLLESGGGLVQPGGSLRLSCAASGFTFSHYAMSWVRQAPGKGLEWVSAISGGGDRTFYADSVKGRFTISRDNSKNTLYLQMNSLRAEDTAVYYCAKDRGFYYGMDVWGQGTTVTVSS VL: not shown",binds
4,"HT30-GL (antibody, V domains shown, member of m17) VH: EVQLLESGGGLVQPGGSLRLSCAASGFTFSIYAMSWVRQAPGKGLEWVSAITAGGDTTYYAVSVKGRFTISRDNSKNTLYLQMNSLRAEDTAVYYCAKDRGYYYGMDVWGQGTTVTVSS VL: not shown",binds
5,"HT29-GL (antibody, V domains shown, member of m17) VH: EVQLLESGGGLVQPGGSLRLSCAASGFAFSHYAMSWVRQAPGKGLEWVSAISGGGDSTYYADSVKGRFTISRDNSKNTLYLQMNSLRAEDTAVYYCAKDRGYYYGMDVWGQGTTVTVSS VL: not shown",binds
6,"HT4-GL (antibody, V domains shown, member of m17) VH: EVQLLESGGGLVQPGGSLRLSCAASGFTFSIYAMSWVRQAPGKGLEWVSAISGGGDSTYNADSVKGRFTISRDNSKNTLYLQMNSLRAEDTAVYYCAKDRGYYYGMVVWGQGTTVTVSS VL: not shown",binds
7,"HT14-GL (antibody, V domains shown, member of m17) VH: EVQLLESGGGLVQPGGSLRLSCAASGFTFNIYAMTWVRQAPGKGLEWVSGISGGGDSTYYADSVKGRFTMSRDNSKNTLYLQMNSLRAEDTAVYYCAKDRGYYYGMDVWGQGTTVTVSS VL: DIVMTQSPLSLPVTPGEPASISCKSRQSLLRSNGYNYLDWYLQKPGQSPQLLIYLGSNRASGVPDRFSGSGSGTDFTLKISRVEAEDVGVYYCMQALQTPYTFGQGTKLEIK",binds
8,"HT16-GL (antibody, V domains shown, member of m17) VH: EVQLLESGGGLVQPGGSLRLSCAASGFTFSNYAMTWVRQAPGKGLEWVSAISGGGDTTYYADSVKGRFTISRDNSKNTLYLQMNSLRAEDTAVYYCAKDRGYYYGMDVWGQGTTVTVSS VL: not shown",binds
9,"HT32-GL (antibody, V domains shown, member of m17) VH: EVQLLESGGGLVQPGGSLRLSCAASGFTFSSYAMSWVRQAPGKGLEWVSAISGGGDTTYYADSVKGRFTISRDNSKNTLYLQMNSLRAEDTAVYYCAKDRGFYYGMDVWGQGTTVTVSS VL: not shown",binds
10,"HT33-GL (antibody, V domains shown, member of m17) VH: EVQLLESGGGLVQPGGSLRLSCAASGFTFGHYAMSWVRQAPGKGLEWVSAISGGGDYTYYADSVKGRLTISRDNSKNTLYLQMNSLRAEDTAVYYCAKDRGYYYGMDVWGQGTTVTVSS VL: not shown",binds
11,"HT36-GL (antibody, V domains shown, member of m17) VH: EVQLLESGGGLVQPGGSLRLSCAASGFTFSIYAMSWVRQAPGKGLEWVSAISGGGDTTYYADSVKGRFTSSRDNSKNTLYLQMNSLRAEDTAVYFCAKDRGFYYGMDVWGQGTTVTVSS VL: not shown",binds
12,"HT8-GL (antibody, V domains shown, member of m17) VH: EVQLLESGGGLVQPGGSLRLSCAASGFTFSIYAMSWVRQAPGKGLEWVSAISGGGDTTYYADSMKGRFTISRDNSKNTLYLQMNSLRAEDTAVYYCAKDRGYYYGMDVWGQGTTVTVSS VL: not shown",binds
13,"HT34-GL-L (antibody, V domains shown, member of m17) VH: EVQLLESGGGLVQPGGSLRLSCAASGFTFSHYAMTWVRQAPGKGLEWVSAISGGGDTTYYADSVKGRFTISRDNSKTTLYLQMNSLRAEDTAVYYCAKDRGYYYGMDVWGQGTTVTVSS VL: not shown",binds
14,"HT10-GL (antibody, V domains shown, member of m17) VH: EVQLLESGGGLVQPGGSLRLSCAASGFTFSHYAMTWVRQAPGKGLEWISAISGGGDSTYYADSVKGRFTISRDNSKNTLYLQMNSLRAEDTAVYYCAKDRGYYYGMDDWGQGTTVTVSS VL: not shown",binds
15,"HT35-GL (antibody, V domains shown, member of m17) VH: EVQLLESGGGLVQPGGSLRLSCAASGFTFSHYAMTWVRQAPGKGLEWISAISGGGDSTYYADSVKGRFTISRDNSKNTLYLQMNSLRAEDTAVYYCAKDRGYYYGMDVWGQGTTVTVSS VL: not shown",binds
